One block for each molecule: values may come before it.
Assays:
[1] = test system: rat GHR (L43R) expressing BAF3 cell line, 2E2-2B12-F4; test: Proliferation by BrdU labeling; type: cell-based, mouse; conditions: WHO hGH is expressed as unity
Method: All cell cultures were maintained at 37° C. in a humidified atmosphere of 5% CO2.

[2] = molecular target: T1, human growth hormone receptor on IM-9 cells (Homo sapiens, UniProt P10912); test: IM-9 pSTAT5 bioassay (STAT5 phosphorylation in IM-9 cells); type: cell-based; conditions: IM-9; WHO hGH is expressed as unity
T1 construct: host or cells: human IM-9 lymphocyte cell line
T1 sequence (P10912 19-638): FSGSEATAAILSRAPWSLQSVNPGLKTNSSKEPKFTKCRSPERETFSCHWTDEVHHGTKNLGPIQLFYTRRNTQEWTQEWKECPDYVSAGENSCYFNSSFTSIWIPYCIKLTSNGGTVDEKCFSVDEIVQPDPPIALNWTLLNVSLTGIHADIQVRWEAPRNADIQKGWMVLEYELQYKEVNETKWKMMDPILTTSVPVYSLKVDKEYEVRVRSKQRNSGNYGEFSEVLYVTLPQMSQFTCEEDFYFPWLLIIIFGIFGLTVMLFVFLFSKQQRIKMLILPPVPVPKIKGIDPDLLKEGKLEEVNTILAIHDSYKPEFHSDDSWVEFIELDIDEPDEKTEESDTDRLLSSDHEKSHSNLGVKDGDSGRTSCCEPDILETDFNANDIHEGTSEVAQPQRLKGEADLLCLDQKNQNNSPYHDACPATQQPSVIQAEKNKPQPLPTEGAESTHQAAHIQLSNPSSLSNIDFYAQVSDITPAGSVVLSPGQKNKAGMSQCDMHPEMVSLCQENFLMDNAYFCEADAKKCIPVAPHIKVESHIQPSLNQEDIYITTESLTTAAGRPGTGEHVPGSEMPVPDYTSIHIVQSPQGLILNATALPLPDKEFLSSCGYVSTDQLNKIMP
Source text: (§1) To further assess the biological activity of modified hGH polypeptides, an assay measuring a downstream marker of hGH's interaction with its receptor was used. The interaction of hGH with its endogenously produced receptor leads to the tyrosine phosphorylation of a signal transducer and activator of transcription family member, STAT5, in the human IM-9 lymphocyte cell line. Two forms of STAT5, STAT5A and STAT5B were identified from an IM-9 cDNA library. See, e.g., Silva et al., Mol. Endocrinol. (1996) 10(5):508-518.
IM-9 cells were stimulated with hGH polypeptides of the present invention. The human IM-9 lymphocytes were purchased from ATCC (Manassas, Va.) and grown in RPMI 1640 supplemented with sodium pyruvate, penicillin, streptomycin (Invitrogen, Carlsbad, San Diego) and 10% heat inactivated fetal calf serum (Hyclone, Logan, Utah). The IM-9 cells were starved overnight in assay media (phenol-red free RPMI, 10 mM Hepes, 1% heat inactivated charcoal/dextran treated FBS, sodium pyruvate, penicillin and streptomycin) before stimulation with a 12-point dose range of hGH polypeptides for 10 min at 37° C. Stimulated cells were fixed with 1% formaldehyde before permeabilization with 90% ice-cold methanol for 1 hour on ice. The level of STAT5 phosphorylation was detected by intra-cellular staining with a primary phospho-STAT5 antibody (Cell Signaling Technology, Beverly, Mass.) at room temperature for 30 min followed by a PE-conjugated secondary antibody. Sample acquisition was performed on the FACS Array with acquired data analyzed on the Flowjo software (Tree Star Inc., Ashland, Oreg.). EC50 values were derived from dose response curves plotted with mean fluorescent intensity (MFI) against protein concentration utilizing SigmaPlot.
The interaction of hGH with its receptor leads to the tyrosine phosphorylation of a signal transducer and activator of transcription family member, STAT5, in the human IM-9 lymphocyte cell line.

[3] = Pharmacokinetic studies, single s.c. dose in normal male Sprague-Dawley rats; type: in vivo, rat; conditions: single-dose 1 mg/kg bolus s.c., normal male Sprague-Dawley rats
Method: Pharmacokinetic properties of PEG-modified growth hormone compounds were compared to each other and to nonPEGylated growth hormone in male Sprague-Dawley rats (261-425 g) obtained from Charles River Laboratories. Catheters were surgically installed into the carotid artery for blood collection. Following successful catheter installation, animals were assigned to treatment groups (three to six per group) prior to dosing. Animals were dosed subcutaneously with 1 mg/kg of compound in a dose volume of 0.41-0.55 ml/kg. Blood samples were collected at various time points via the indwelling catheter and into EDTA-coated microfuge tubes. Plasma was collected after centrifugation, and stored at −80° C. until analysis. Compound concentrations were measured using antibody sandwich growth hormone ELISA kits from either BioSource International (Camarillo, Calif.) or Diagnostic Systems Laboratories (Webster, Tex.). Concentrations were calculated using standards corresponding to the analog that was dosed. Pharmacokinetic parameters were estimated using the modeling program WinNonlin (Pharsight, version 4.1). Noncompartmental analysis with linear-up/log-down trapezoidal integration was used, and concentration data was uniformly weighted.
Rats (n=3-4 per group) were given a single bolus dose of 1 mg/kg hGH wild-type protein (WHO hGH), His-tagged hGH polypeptide (his-hGH), or His-tagged hGH polypeptide comprising non-natural amino acid p-acetyl-phenylalanine at position 92 covalently linked to 30 kDa PEG (30 KPEG-pAF92(his)hGH). Plasma samples were taken over the indicated time intervals and assayed for injected compound as described.
Rats (n=3-6 per group) were given a single bolus dose of 1 mg/kg protein. hGH polypeptides comprising non-natural amino acid p-acetyl-phenylalanine covalently linked to 30 kDa PEG at each of six different positions were compared to WHO hGH and (his)-hGH. Plasma samples were taken over the indicated time intervals and assayed for injected compound as described. Concentration vs time curves were evaluated by noncompartmental analysis (Pharsight, version 4.1). Values shown are averages (+/− standard deviation). Cmax: maximum concentration; terminal t1/2: terminal half-life; AUC0->inf: area under the concentration-time curve extrapolated to infinity; MRT: mean residence time; Cl/f: apparent total, plasma clearance; Vz/f: apparent volume of distribution during terminal phase.

hypophysectomized rats = test: Pharmacodynamic studies in hypophysectomized rats (Example 30); type: in vivo, rat; conditions: s.c., compared with the pAF92 30 kDa PEG compound, p<0.0005
Method: Hypophysectomized male Sprague-Dawley rats were obtained from Charles River Laboratories. Pituitaries were surgically removed at 3-4 weeks of age. Animals were allowed to acclimate for a period of three weeks, during which time bodyweight was monitored. Animals with a bodyweight gain of 0-8 g over a period of seven days before the start of the study were included and randomized to treatment groups. Rats were administered either a bolus dose or daily dose subcutaneously. Throughout the study rats were daily and sequentially weighed, anesthetized, bled, and dosed (when applicable). Blood was collected from the orbital sinus using a heparinized capillary tube and placed into an EDTA coated microfuge tube. Plasma was isolated by centrifugation and stored at −80° C. until analysis.
The peptide IGF-1 is a member of the family of somatomedins or insulin-like growth factors. IGF-1 mediates many of the growth-promoting effects of growth hormone. IGF-1 concentrations were measured using a competitive binding enzyme immunoassay kit against the provided rat/mouse IGF-1 standards (Diagnosic Systems Laboratories). Significant difference was determined by t-test using two-tailed distribution, unpaired, equal variance. […] Rats (n=5-7 per group) were given either a single dose or daily dose subcutaneously. Animals were sequentially weighed, anesthetized, bled, and dosed (when applicable) daily. […]

rat GHR ECD (L43R) = molecular target: T2, rat GHR ECD (L43R) (Rattus norvegicus, UniProt P16310, L61R); test: Biacore analysis of binding of GH to GHR; conditions: rat GHR ECD (L43R) immobilized on a CM5 chip, bivalent analyte model
T2 construct: (GHR ECD, amino acids S29-T238) was cloned into pET20b vector; made in house
T2 sequence (P16310 47-256 L61R): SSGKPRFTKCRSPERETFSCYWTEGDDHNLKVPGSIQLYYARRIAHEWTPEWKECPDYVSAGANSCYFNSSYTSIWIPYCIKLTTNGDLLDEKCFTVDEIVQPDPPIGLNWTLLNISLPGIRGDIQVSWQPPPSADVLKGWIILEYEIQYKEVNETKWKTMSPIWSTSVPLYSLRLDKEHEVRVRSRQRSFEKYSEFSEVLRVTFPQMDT
Method: Cloning and purification of rat GH receptor The extracellular domain of rat GH receptor (GHR ECD, amino acids S29-T238) was cloned into pET20b vector (Novagen) between Nde I and Hind III sites in frame with C-terminal 6H is tag. A mutation of L43 to R was introduced to further approximate the human GH receptor binding site (Souza et al., Proc Natl Acad Sci USA. (1995) 92(4): 959-63). Recombinant protein was produced in BL21 (DE3) E. coli cells (Novagen) by induction with 0.4 mM IPTG at 30° C. for 4-5 hours. After lysing the cells, the pellet was washed four times by resuspending in a dounce with 30 mL of 50 mM Tris, pH 7.6, 100 mM NaCl, 1 mM EDTA, 1% Triton X-100, and twice with the same buffer without Triton X-100. […] Refolding was accomplished by means of passing an aliquot of the inclusion body solution through a S100 (Sigma) gel filtration column, equilibrated with 50 mM Tris, pH 7.8, 1 M L-arginine, 3.7 mM cystamine, 6.5 mM cysteamine. Fractions containing soluble protein were combined and dialyzed against 50 mM Tris, pH 7.6, 200 mM NaCl, 10% glycerol. The sample was briefly centrifuged to remove any precipitate and incubated with an aliquot of Talon resin (Clontech), according to manufacturer's instructions. After washing the resin with 20 volumes of dialysis buffer supplemented with 5 mM imidazole, protein was eluted with 120 mM imidazole in dialysis buffer. Finally, the sample was dialyzed overnight against 50 mM Tris, pH 7.6, 30 mM NaCl, 1 mM EDTA, 10% glycerol, centrifuged briefly to remove any precipitate, adjusted to 20% glycerol final concentration, aliquoted and stored at −80 C. Concentration of the protein was measured by OD(280) using calculated extinction coefficient of ε=65,700 M^−1*cm^−1.
Approximately 600-800 RUs of soluble GHR ECD was immobilized on a Biacore™ CM5 chip, using a standard amine-coupling procedure, as recommended by the manufacturer. […] See, e.g., Cunningham et al. J Mol. Biol. (1993) 234(3): 554-63 and Wells J A. Proc Natl Acad Sci USA (1996) 93(1): 1-6).
Various concentrations of wild type or mutant GH (0.1-300 nM) in HBS-EP buffer (Biacore™, Pharmacia) were injected over the GHR surface at a flow rate of 40 μl/min for 4-5 minutes, and dissociation was monitored for 15 minutes post-injection. The surface was regenerated by a 15 second pulse of 4.5M MgCl2. […] Reference cell with no receptor immobilized was used to subtract any buffer bulk effects and non-specific binding.
Kinetic binding data obtained from GH titration experiments was processed with BiaEvaluation 4.1 software (BIACORE™). […] Equilibrium dissociation constants (Kd) were calculated as ratios of individual rate constants (koff/kon).

[4] = molecular target: T1, human growth hormone receptor on IM-9 cells; test: Inhibition of WHO hGH induced phosphorylation of STAT5 in IM-9 cells; type: cell-based
Source text: as §1

EC50 [1]: > 200 µM
EC50 [2]: > 200 µM
Molecule: F92pAF/G120R-30KPEG: hGH with G120R and p-acetyl-phenylalanine at position 92 linked to 30 kDa PEG

EC50 [1]: > 200 µM
EC50 [2]: > 200 µM
Molecule: F92pAF/G120R: hGH with p-acetyl-phenylalanine substituted for F92 and a G120R substitution

kon (rat GHR ECD (L43R)): 90000 M⁻¹ s⁻¹
Molecule: Y35pAF-30KD PEG: hGH polypeptide comprising p-acetyl-phenylalanine at position 35 covalently linked to 30 kDa PEG
AUC0−>inf [3]: 39,918 ng × hr/ml
Cl/f [3]: 0.583 mL/min/kg
Cmax [3]: 1,885 ng/ml
MRT [3]: 19.16 h
Terminal t1/2 [3]: 4.85 h
bodyweight gain at day 9 (hypophysectomized rats): greater weight gain was observed

B1: rat GHR (L43R) extra cellular domain: extracellular domain of rat GH receptor (amino acids S29-T238) with L43 to R mutation (protein)
chain: SSGKPRFTKCRSPERETFSCYWTEGDDHNLKVPGSIQLYYARRIAHEWTPEWKECPDYVSAGANSCYFNSSYTSIWIPYCIKLTTNGDLLDEKCFTVDEIVQPDPPIGLNWTLLNISLPGIRGDIQVSWQPPPSADVLKGWIILEYEIQYKEVNETKWKTMSPIWSTSVPLYSLRLDKEHEVRVRSRQRSFEKYSEFSEVLRVTFPQMDT
modifications: left off: small tags and cut ends
notes: extracellular domain of rat GH receptor (amino acids S29-T238) with L43 to R mutation
competition against hGH stimulated pSTAT5 phosphorylation / antagonist potency [4]: compete effectively against hGH stimulated pSTAT5 phoshorylation

Reference: US8143216B2, “Modified human growth hormone” (Ambrx, Inc., priority 2004, dated 2012)
